# Source: patent publication US20040067882A1 (published 2004)
# Molecular target: the molecule itself
# Experiment: self-association, non-reducing western blot
protein,measurement,value
"CG57094-02 purified protein (angiopoietin-related protein, ARP, mature region; CHO-K1 stable cell expression, plasmid 1614) (ligand, also called NOV25s; CG57094 variant 02; not shown: C-terminal V5 and His tags from the pEE14.4 Sec vector) GPVQSKSPRFASWDEMNVLAHGLLQLGQGLREHAERTRSQLSALERRLSACGSACQGTEGSTDLPLAPESRVDPEVLHSLQTQLKAQNSRIQQLFHKVAQQQRHLEKQHLRIQHLQSQFGLLDHKHLDHEVAKPARRKRLPEMAQPVDPAHNVSRLHRLPRDCQELFQVGERQSGLFEIQPQGSPPFLVNCKMTSDGGWTVIQRRHDGSVDFNRPWEAYKAGFGDPHGEFWLGLEKVHSITGDRNSRLAVQLRDWDGNAELLQFSVHLGGEDTAYSLQLTAPVAGQLGATTVPPSGLSVPFSTWDQDHDLRRDKNCAKSLSGGWWFGTCSHSNLNGQYFRSIPQQRQKLKKGIFWKTWRGRYYPLQATTMLIQPMAAEAAS",binding result,binds
